Residue numbers refer to the chain shown, from its start.
Target: T1, human CD22 on B cells of hCD22-Tg+/+ mCD22-/- transgenic mice (human, UniProt P20273 20-847)
T1 construct: whole, on cells; Expressed from the human CD22 gene with its endogenous regulatory elements
Test: flow cytometry of blood B220+ B cells from hCD22-Tg mice 7 days after mAb injection, stained with anti-mouse IgG1
Description: FIGS. 20A-20B are a set of histograms and scatter plots showing B10 cell-depleting mAbs in hCD22-Tg mice bind B220⁺B cells. Blood lymphocytes isolated from hCD22-Tg mice given either HB22-103, HB22-107, HB22-115 or an isotype-matched (IgG1) mAb (250 μg/mouse) 7 days earlier in FIG. 16 were assessed for relative HB22 mAb binding by immunofluorescence staining with fluorochrome-conjugated anti-mouse IgG1 isotype-specific antibody. […] Bars indicate means, with significant differences between group means indicated: **, p<0.01; ***, p<0.001.

B1: HB22-107 (antibody, V domains shown)
VH: DVKLVESGEGLVKPGGSLKLSCAASGFTFSSYAMSWVRQTPEKRLEWVAYITSGGDYIYYADTVKGRFTISRDDARNTLYLQMSSLKSEDTAMYYCTRDQGYYYDGRPTWFAYWGQGTLVTVSA
VL: DIVMIQSPSSLAMSVGQKVTMRCKSSQSLLSSSNQKNYLAWYQQKPGQSPKLLVYFASTRESGVPDRFIGSGSGTDFTLTINSVQAEDLADYFCQQHYSTPLTFGAGTKLELK
notes: Mouse IgG1 monoclonal antibody to human CD22; also called HB22-107 mAb; HB22 mAb
B1: binds.

B2: HB22-103 (antibody, V domains shown)
VH: QVQLQQPGTELVKPGASVKLSCKASGYTFTSYWMHWVKQRPGQGLEWIGMIHPNRGTTNYNEKFKSKATLTVDKSSSTAYMQLSSLTSEDSAVYYCARYYDYDPDYWGQGTTLTVSS
VL: DIVLTQSPATLSVTPGDSVSLSCRASQSISNNLHWFQQKSHESPRLLIKYGYQSISGIPSRFSGSGSGTDFTLSINSVETEDFGMYFCQQSYRWPYTFGGGTKLEIK
notes: also called HB22-103 mAb; HB22 mAb
B2: binds.

B3: HB22-115 (antibody, V domains shown)
VH: B2 VH with T9A, R55S, T57S, N61S
VL: B2 VL with S20T, S28G, F36Y, K39Q, Y50F, G51T, Y52S, I55V, I75V, Y92N
notes: Mouse IgG1 monoclonal antibody to human CD22; also called HB22-115 mAb; HB22 mAb
B3: binds.

Source: patent US20190367607A1 (DUKE UNIVERSITY, published 2019)
